Measurements: publication PMC11676905

Columns and labels:
[1] = molecular target: rTBL-1 R103Q mutant lectin (Phaseolus acutifolius); assay: SEC; ENrich SEC 650 column calibrated with gel filtration standard; 200 µL of sample at 10 mg/mL; 20 mM MES, 100 mM NaCl, pH 6.5; single peak at approximately 120 kDa
[2] = molecular target: rTBL-1 R130Q mutant lectin (Phaseolus acutifolius); assay: as above

stoichiometry N [1]	stoichiometry N [2]	Substance
4	–	rTBL-1 R103Q mutant lectin (natural protein)
–	4	rTBL-1 R130Q mutant lectin (natural protein)
